Experimental data: the supplement of paper PMC10567573
± gives the standard deviation.

Experiment: protein stability index of a GFP-peptide fusion (GPS, HEK-293T) (PSI 1-6); higher = more stable
[1] = treatment: DMSO, c terminus: a fixed tail appended
[2] = treatment: MLN4924 1 uM, 8 h, c terminus: a fixed tail appended
[3] = treatment: DMSO, c terminus: native
[4] = treatment: MLN4924 1 uM, 8 h, c terminus: native
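Note: 24-mer peptide tiles fused after GFP, lentivirally expressed, FACS-sorted into six equal bins by GFP/DsRed ratio, decoded by Illumina sequencing, PSI is the read-weighted mean bin number.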

Sequence | protein stability index [1] | protein stability index [2] | protein stability index [3] | protein stability index [4]
ELLREGRASATTTITTAAATSVTV [ZBTB22] | 3.42 ± 0.21 | 3.48 ± 0.28 |  | 
ELNDRFANFIEKVRFLEQQNAALR [PRPH] | 2.39 ± 0.21 | 2.71 ± 0.33 |  | 
EMFPAAQQLYRHGKAYRFLFGFSA [JAGN1] | 2.5 ± 0.56 | 2.31 ± 0.29 |  | 
EMLREVDLNGDGTVDFDEFVMMLS [CABP4] | 4.06 ± 0.25 | 4.17 ± 0.33 |  | 
ENCLSASAAQTDPTTGYRRLLRFS [LOXL2] | 3.34 ± 0.36 | 3.35 ± 0.4 |  | 
ENLIMFQNLANEEVRKLTQRLEEM [MATN2] | 3.58 ± 0.094 | 3.17 ± 0.47 |  | 
ENQEKTEDQYEENSHLTSVPHWIN [ETS2] | 4.97 ± 0.21 | 4.95 ± 0.22 |  | 
ENSVTHHEVKCQGKPLAGIYRKRE [KMT5A] | 4.34 ± 0.13 | 4.42 ± 0.34 |  | 
ENYLEYRQVPGSDPACYEFLWGPR [MAGEA3] | 3.12 ± 0.34 | 3.17 ± 0.36 |  | 
EPDLRHLVLVVNTLRRIQASMAPA [SERTAD1] | 2.66 ± 0.11 | 2.51 ± 0.14 |  | 
EPPPPGKHSNKKVMRTKSSEKAAN [CPXM2] | 5.09 ± 0.23 | 5.14 ± 0.81 |  | 
EQAPAPGEATAAPAPLCGGPSAEA [TBX6] | 5.5 ± 0.31 | 5.46 ± 0.25 |  | 
EQDSGVQVEGLTVQYLGQAPELLG [ADAMTS4] | 4.38 ± 0.13 | 4.91 ± 0.34 |  | 
EQPHGRSRRREQSSSRNSHLVQHQ [ZNF8] | 4.78 ± 0.23 | 4.76 ± 0.28 |  | 
EREASPSNSCQDSTDTESNNEEQR [IKZF1] | 5.24 ± 0.45 | 5.61 ± 0.22 |  | 
ERENVAVAKLQESQPGNAVIDKET [SDE2] | 5.37 ± 0.25 | 5.06 ± 0.21 |  | 
ERKKNLTLALEALVQLRGRLTSQD [ALG2] | 2.79 ± 0.16 | 2.88 ± 0.48 |  | 
ERMRNSRDRLLNRYRQAGSSGPGN [RPAIN] | 4.12 ± 0.25 | 4.41 ± 0.27 |  | 
ERREALCRQLSESESSLEMDDERY [CCDC6] | 5.41 ± 0.11 | 5.27 ± 0.16 |  | 
ERSVFSERTEESSAVQYFQFYGYL [CARM1] | 2.08 ± 0.1 | 2.23 ± 0.25 |  | 
ERSVVTRDIRCSEDEKLCDPNTRP [ADAMTSL2] | 5.06 ± 0.31 | 5.41 ± 0.27 |  | 
ERTRKPYNNDIDYYAKRNALRAAE [GALNT9] | 4.1 ± 0.13 | 4.26 ± 0.24 |  | 
ESAGPSRAVRQSVTSFPDADAFHH [EMD] | 4.33 ± 0.86 | 4.44 ± 0.18 |  | 

Sequence | protein stability index [1] | protein stability index [2] | protein stability index [3] | protein stability index [4]
ESDYTYSSSYEQFNGELPNGRHKI [SRPK2] | 4.04 ± 0.41 | 3.97 ± 0.49 |  | 
ESEDDPVVKKIALREIRMLKQLKH [CDKL4] | 2.96 ± 0.52 | 3.08 ± 0.33 |  | 
ESIRRAQVSQVKGAARLALLQGAG [FCHSD1] | 3.45 ± 0.12 | 3.36 ± 0.52 |  | 
ESLVPFIVNDNITNNFFRFLCMT [DYNC2LI1] |  |  | 3.91 ± 0.45 | 2.63 ± 0.67
ESYESMELACPAERSGHVAVSDGR [KLHDC2] | 5.08 ± 0.069 | 5.09 ± 0.17 |  | 
ETEEMLGKKQEYLENRIQREIALA [CHMP4C] | 4.44 ± 0.14 | 4.58 ± 0.29 |  | 
ETSVGTYESHSTSELEDLTEPEQR [TPD52L3] | 5.69 ± 0.14 | 5.45 ± 0.28 |  | 
ETSVVAQFGIKDVFDNAIRAALIS [RHOBTB2] | 2.28 ± 0.19 | 2.38 ± 0.38 |  | 
EVDGLRGTNEALLRQLRELEEQFA [PRPH] | 4.35 ± 0.17 | 4.32 ± 0.26 |  | 
EVKPKDIIHVVKDQLIGQGIIVKD [TENT5D] | 3.52 ± 0.066 | 3.73 ± 0.25 |  | 
EVLKVQTHLENPTRYHLQQARRQQ [TFE3] | 3.77 ± 0.23 | 3.91 ± 0.33 |  | 
EVNSRCYQPEPFACGIEHCSVHYV [FBXO34] | 2.58 ± 0.18 | 2.33 ± 0.67 |  | 
FCPLSLWRWQLYAAQSTKSPWNFL [CLPTM1] | 2.66 ± 0.62 | 2.9 ± 0.51 |  | 
FELALQLAEMKDDSDSEKQQQIHH [VPS39] | 4.76 ± 0.17 | 4.8 ± 0.12 |  | 
FEMKKGQCKDALEIYKRFLTRMTR [SNAP91] | 2.46 ± 0.7 | 2.56 ± 0.43 |  | 
FESHDLLRKGFSCVKNELLPSHPL [POMP] | 2.92 ± 0.31 | 3.05 ± 0.42 |  | 
FFEDGDVQRHLYLQDVIMQVADVP [ZNF511] | 2.82 ± 0.29 | 2.81 ± 0.43 |  | 
FFVSSINTLVTKTMEDTLMTVKQY [ARFIP2] | 3.08 ± 0.64 | 3.05 ± 1 |  | 
FFVVETLCIIWFSFELLVRFFACP [KCNA3] | 3.11 ± 0.52 | 2.74 ± 0.42 |  | 
FGDLSLSLVTVGKHLTARVLCLIV [POMT2] | 3.39 ± 0.76 | 2.71 ± 0.48 |  | 
FGSFLLLLFSLTQFSVVSVVAYLA [RTN1] | 3.14 ± 0.62 | 3.35 ± 0.6 |  | 
FIDTYSDVGRYIDHYAAIKKAWDD [FBXO3] | 2.6 ± 0.61 | 2.37 ± 0.77 |  | 
FIPAHVAFDKKVLKFDAYFQEDVP [EFHC1] | 2.24 ± 0.23 | 2.57 ± 0.58 |  | 

Sequence | protein stability index [1] | protein stability index [2] | protein stability index [3] | protein stability index [4]
FIPSLKYVQWSLPFIVFGATGLTS [SLC22A15] | 3.14 ± 0.22 | 3.33 ± 0.36 |  | 
FKDKSTYIESSTKVYDDMAFRYLS [CLPTM1] | 2.65 ± 0.33 | 2.57 ± 0.32 |  | 
FKLLDKNSSGDIGKKEIKPFKRFL [SMOC2] | 2.54 ± 0.42 | 3.01 ± 0.43 |  | 
FLDLVKPEPVYKLTQRQVNITVQK [HACD3] | 2.56 ± 0.14 | 2.79 ± 0.44 |  | 
FLEEAHEWNQKRARKAMRNGISPI [N4BP2L1] | 3.1 ± 0.29 | 3.18 ± 0.34 |  | 
FLESTDSFNNELKRLCGLKVEVDM [SMARCE1] | 4.08 ± 0.23 | 4.22 ± 0.21 |  | 
FLSEEEYWKLQIFFTNVIQALGEH [CCNC] | 2.42 ± 0.96 | 2.36 ± 0.084 |  | 
FLVLEQFLTILPEELQSWVRGHHP [ZNF232] | 2.45 ± 0.55 | 2.5 ± 0.62 |  | 
FMGTISDVKTNVQLLKGRVDNIST [CD207] | 3.02 ± 0.22 | 3.12 ± 0.32 |  | 
FMHSFEEKYGRAHPVFYQGTYSQA [FAF2] | 2.18 ± 0.21 | 2.42 ± 0.28 |  | 
FPAMLFSSMLTGILWDTLLRLCAW [POMT2] | 3.23 ± 0.51 | 3.09 ± 0.12 |  | 
FPPFFDDNPFGIYQKILAGKIDFP [PRKX] | 2.28 ± 0.067 | 2.27 ± 0.62 |  | 
FQGSMRIFTKKLPHPDLPAEEKEQ [USP39] | 2.55 ± 0.75 | 3.77 ± 0.69 |  | 
FRFIPVLFPNAKKEHVPTWLQNTH [TRAF3IP2] | 2.3 ± 0.61 | 2.6 ± 0.69 |  | 
FRRSLHDPDGLVATYISEVHEHDG [APMAP] | 4.02 ± 0.28 | 4.01 ± 0.3 |  | 
FRRTDGRCLIWGRKPKVIECSYTS [DHCR7] | 2.35 ± 0.17 | 2.34 ± 0.33 |  | 
FSEETEKKFEHFSGLLNNQLSPQ [LOXL2] |  |  | 3.57 ± 0.72 | 4.61 ± 0.37
FSLMVTFPDVPLGIFLFCVCVIAI [TMEM175] | 3.37 ± 0.5 | 3.14 ± 0.31 |  | 
FSQEIGLASLGASEEAVQKLATCY [TPH1] | 3.12 ± 0.18 | 3.34 ± 0.3 |  | 
FSSDKAKAGSSEWLAVDGLVSPSN [ATF4] | 3.8 ± 0.26 | 4.08 ± 0.32 |  | 
FTAALEHCRENAHDKIRPISSIGQ [SPACA9] | 3.3 ± 0.088 | 3.41 ± 0.25 |  | 
FTSPDYQQQCHEMAERLEDSVLKG [SDE2] | 3.01 ± 0.59 | 3.62 ± 0.7 |  | 
FVCQCYSGYALAEDGKRCVAVDYC [MATN2] | 2.29 ± 0.93 | 2.77 ± 0.46 |  | 

Sequence | protein stability index [1] | protein stability index [2] | protein stability index [3] | protein stability index [4]
FVEATRKWKVGIPSDPLVSIGALI [ALDH8A1] | 2.34 ± 1.1 | 2.16 ± 0.57 |  | 
FWQTQYNNMNAVNLFFAWIKIFKY [PKD2L1] | 2.38 ± 0.38 | 2.19 ± 0.52 |  | 
GAFDSFLLRFGVPSPSTLEPHPRP [TNXB] | 2.99 ± 0.42 | 2.97 ± 0.35 |  | 
GAFYRRAQRLRPQDEPRQGCQPED [KCNG1] | 5.21 ± 0.18 | 5.11 ± 0.11 |  | 
GALLAPIRVLLAFIVLFLLWPFAW [LPCAT4] | 2.68 ± 0.51 | 2.67 ± 0.54 |  | 
GASLYAISNVCEEYIVKKLSRQEF [SLC35F2] | 2.3 ± 0.27 | 2.45 ± 0.43 |  | 
GCCVFAFLVGLLFVQRSGNYFVTM [SLC6A17] | 3.39 ± 0.34 | 3.12 ± 0.07 |  | 
GCSLTADGLPLHFFIQTVRPKDTV [MYORG] | 2.3 ± 0.25 | 2.19 ± 0.33 |  | 
GCWAWPLAGLSVGRSSLTACSLPL [PXN] | 1.99 ± 0.86 | 2.15 ± 0.82 |  | 
GFTPLHMAVDKDTTNVGRYPVGRF [FEM1A] | 3.43 ± 0.089 | 3.6 ± 0.36 |  | 
GGGPSATEWACILRRKTPRHKQPT [C6orf223] | 3.57 ± 0.12 | 3.72 ± 0.16 |  | 
GGLGGGYGGGLGGGFGGGFAGGFV [KRT13] | 2.16 ± 0.25 | 2.1 ± 0.82 |  | 
GGQDGLGAPKDQQQPPQQQPSQQQ [KLHL14] | 5.36 ± 0.5 | 5.4 ± 0.56 |  | 
GGYEKASKRMTFQMPKFDLGPLLS [MYOZ1] | 2.54 ± 0.32 | 2.64 ± 0.22 |  | 
GHCLLDKPEAPLHLPVTFPGKDYD [ADAMTS4] | 4.14 ± 0.26 | 4.4 ± 0.3 |  | 
GKKEIKPFKRFLRKKSKPKKCVKK [SMOC2] | 3.1 ± 0.25 |  |  | 
GKSVSSSSSVETGPSVSEPPGLPR [SPATS1] | 5.08 ± 0.18 | 5.11 ± 0.067 |  | 
GKWPQVLFFPEGTCSNKKALLKFK [LPCAT4] | 2.52 ± 0.31 | 2.57 ± 0.45 |  | 
GLAMALEPNTTFLRKSLKAALKHL [FANCE] | 2.48 ± 0.33 | 2.54 ± 0.62 |  | 
GLKASLERLQLEYVDVVFANRPDP [KCNAB2] | 2.47 ± 0.42 | 2.21 ± 0.37 |  | 
